Source: patent US20060148057A1, “Thioredoxin mutants and uses thereof” (priority 2002, published 2006)
Positions count from the first letter of the chain named. Numbers in names are those of the source.

Assays:
[1] = test system: JNK; experiment: ASK1-induced JNK activation in BAEC, in vitro kinase assay with GST-c-Jun; assay type: cell-based, Bovine; details: co-expression with ASK1 1:1, 24 h post-transfection
Procedure: J Immunol. 159:3508-18 (1997)) using GST-MKK4 and GST-c-Jun (1-80) fusion protein as a substrate, respectively. Briefly, total 400 μg cell lysates were immunoprecipitated with 5 μg of antibody against ASK1 or JNK1 (Santa Cruz). The immunoprecipitates were mixed with 10 μg GST-MKK4 or GST-c-Jun (1-80) suspended in the kinase buffer (20 mM Hepes, pH 7.6, 20 mM MgCl2, 25 mM β-glycerophosphate, 100 μM sodium orthovanadate, 2 mM DTT, 20 μM ATP) containing 1 μl (10 μCi) of [γ-32P] ATP. The kinase assay was performed at 25° C. for 30 min. The reaction was terminated by the addition of Laemmli sample buffer and the phosphorylated GST-MKK4 or GST-c-Jun (1-80) was visualized by autoradiography.
Trx-C32S and Trx-C35S (but not Trx-WT) inhibits ASK1-mediated EC apoptosis induced by TNF. To determine the biological consequence of Trx-induced ASK1 ubiquitination/degradation, the effects of Trx on ASK1-induced apoptosis were examined. ASK1-induced activation of JNK and caspase 3 has been implicated in cell d e a t h (Hatai T et al. Execution of apoptosis signal-regulating kinase 1 (ASK1) induced apoptosis by the mitochondria-dependent caspase activation. J Biol Chem.275:26576-81 (2000); Tournier C et al. Requirement of JNK for stress-induced activation of the cytochrome c- mediated death pathway. Science. 288:870-4 (2000)). First, the effects of Trx on JNK activation induced by ASK1 were examined. BAEC were co-transfected with ASK1 and Trx expression constructs as indicated, and JNK activity was measured by an in vitro kinase assay using GST-c-Jun as a substrate. […] Co-expression of Trx-WT, Trx-C32S and Trx-C35S (but not Trx-CS) inhibited ASK1-induced JNK activity (FIG. 6A top panel). Western blot with anti-Flag indicated equal amounts of Trx proteins were expressed (FIG. 6A bottom panel). Similar results were obtained in human EC (HUVEC).

[2] = test system: BAEC; experiment: GFP co-transfection killing assay, ASK1-induced EC death; assay type: cell-based, Bovine; details: for inhibitory effect on ASK1-induced apoptosis under TNF treatment: TNF 10 ng/ml
Procedure: Trx inhibits ASK1-induced JNK activation and caspase 3 activity. BAEC were co-transfected with ASK1 and Trx constructs in 1:1 ratio as indicated: control vector alone (Ctrl), ASK1 with VC, Trx-WT, Trx-CS, Trx-C32S or Trx-C35S. 24 h post-transfection, cell lysates were used to examine JNK and caspase 3 activity. […] JNK activity was measured by an in vitro kinase assay GST-c-Jun as a substrate. Trx expression was determined by Western blot anti-Flag. […] Caspase 3 activity was measured by Sigma's Caspase 3 Fluorometric Assay Kit in the absence or presence of caspase 3 inhibitor Ac-DEVD-CHO. Assay was performed as duplicates. Caspase 3 activities were normalized with the Ctrl group (as zero). Data are presented from mean of two independent experiments. […] 6-well BAEC were co-transfected with a GFP expression construct and ASK1/Trx constructs as indicated (1 μg GFP, 1 μg ASK1, 1 μg Trx, total DNA was kept to 3 μg by adding VC): control vector alone (Ctrl), ASK1 with VC, Trx-WT, Trx-CS, Trx-C32S or Trx-C35S. Cells were cultured in the presence or absence of TNF (10 ng/ml). 48 h after transfection, GFP-positive cells were counted as survival cells. The survival rate is shown (Ctrl group as 100%). Data are presented from mean of four independent experiments. […] BAEC were transfetced as in FIG. 6C. 6-well BAEC were transfetced with GFP (1 μg) and Trx -expressing construct (1 μg each) as indicated. 24 h after transfection, cells were either left untreated or treated with TNF (10 ng/ml) plus CHX (10 μg/ml) for 24 h. GFP-positive cells were counted as survival cells. […] Data are presented from mean of four independent experiments.
Quantitation of cell killing: Cell killing assay was performed as described previously with a modification (Slowik M R et al. Evidence that tumor necrosis factor triggers apoptosis in human endothelial cells by interleukin-1-converting enzyme-like protease- dependent and -independent pathways. Lab Invest. 77:257-67 (1997)). EC were transfected with a combination of GFP reporter plasmid and the control vector or experimental expression plasmids for ASK1 and Trx at 1:1 ratio as indicated. GFP-positive cells were visualized under a fluorescence microscope and counted as number of survival cells.
ASK1-induced EC death was measured by a GFP co-transfection killing assay as previously described with minor modifications (Slowik M R Evidence that tumor necrosis factor triggers apoptosis in human endothelial cells by interleukin-1-converting enzyme-like protease- dependent and -independent pathways. Lab Invest. 77:257-67 (1997)). Overexpression of ASK1 in EC (BAEC or HUVEC) induced 60% cell death at 48 h post-transfection, i.e., 40% of GFP-positive (survival) EC compared to the control cells (Ctrl as 100% survival, FIG. 6C).

B1: thioredoxin (protein)
chain: MVKQIESKTAFQEALDAAGDKLVVVDFSATWCGPCKMIKPFFHSLSEKYSNVIFLEVDVDDCQDVASECEVKCMPTFQFFKKGQKVGEFSGANKEKLEATINELV
modifications: Flag tag or GST fusion
notes: Flag-tagged or GST fusion
ASK1-induced JNK activity [1]: inhibited
ASK1-ΔN-induced apoptosis [2]: did not inhibit
inhibitory effect on ASK1-induced apoptosis under TNF treatment [2]: diminished the inhibitory effect

B2: Trx-C32S: C32S single mutant of Trx at the catalytic site, SEQ ID NO:2 (protein)
chain: B1 chain with C32S
ASK1-induced JNK activity [1]: inhibited
inhibitory effect on ASK1-induced apoptosis under TNF treatment [2]: retained their inhibitory effects

B3: Trx-C35S: C35S single mutant of Trx at the catalytic site, SEQ ID NO:3 (protein)
chain: B1 chain with C35S
ASK1-induced JNK activity [1]: inhibited
inhibitory effect on ASK1-induced apoptosis under TNF treatment [2]: retained their inhibitory effects
